Patent publication US7271172B2, “Pyrrolidine and azetidine compounds as CCR5 antagonists” (SmithKline Beecham Corporation, priority 2002, dated 2007)

Molecular target: T1, human CCR5 chemokine receptor (Homo sapiens, UniProt P51681)
T1 construct: host or cells: Chinese Hamster Ovary (CHO) cells; membranes prepared from the cell pellet
Assay: CC-Chemokine Receptor-5 Binding by Scintillation Proximity Assay (CCR5 SPA), displacement of [125I]MIP1α
Details: standard compound, 14-point concentration-response curve in triplicate, starting concentration 1 μM
Description: CC-Chemokine Receptor-5 Binding by Scintillation Proximity Assay (CCR5 SPA) Scintillation Proximity Assay for the Human CC-Chemokine Receptor, CCR-5
This protocol describes a high-throughput screen using SPA binding to identify compounds that inhibit binding of ^125-MIP1α to the human CCR5 chemokine receptor.
Human CCR5 receptors were expressed in Chinese Hamster Ovary (CHO) cells, registration # 12025. Cells were grown in suspension and a 50 to 80 ml CCR5 cell pellet was prepared. […]
The saturation curve binding experiment is performed by adding varying amounts of [^125I]MIP1α (0-8.5 nM to membranes and beads in concentrations chosen from the optimal protein/bead ratio. The data is analyzed using a non-linear curve-fitting program. The Kd and Bmax are derived from the curve. […]

T1 sequence (P51681 whole entry): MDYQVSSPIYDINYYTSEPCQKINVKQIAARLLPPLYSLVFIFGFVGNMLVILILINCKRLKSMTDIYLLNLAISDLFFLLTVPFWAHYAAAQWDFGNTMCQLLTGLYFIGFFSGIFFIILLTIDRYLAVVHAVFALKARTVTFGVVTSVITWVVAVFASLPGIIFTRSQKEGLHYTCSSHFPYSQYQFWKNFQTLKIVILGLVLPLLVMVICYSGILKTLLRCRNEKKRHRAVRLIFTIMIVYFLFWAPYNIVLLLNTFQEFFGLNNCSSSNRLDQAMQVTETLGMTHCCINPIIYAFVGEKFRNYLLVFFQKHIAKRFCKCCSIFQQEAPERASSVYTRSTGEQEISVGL

MIP1α: natural chemokine ligand of CCR5; standard compound of the CCR5 SPA binding assay
average historical pKi: 7.6
